Laboratory results taken from US20100028415A1.

Legend:
histones = experiment: Luminex AtheNA Multi-Lyte ANA Test, 0.15 µg mab per test
centromere B = centromere B (UniProt P07199); experiment: as above
SS-A/Ro = experiment: as above
Mab 4E10 = experiment: competition ELISA: gp140 (19.25-1230 nM) mixed with 10 µg/ml 4E10 MAb, added to wells with 1.35 µg cardiolipin

Chain of UniProt P07199 (P07199 2-599 limits assumed): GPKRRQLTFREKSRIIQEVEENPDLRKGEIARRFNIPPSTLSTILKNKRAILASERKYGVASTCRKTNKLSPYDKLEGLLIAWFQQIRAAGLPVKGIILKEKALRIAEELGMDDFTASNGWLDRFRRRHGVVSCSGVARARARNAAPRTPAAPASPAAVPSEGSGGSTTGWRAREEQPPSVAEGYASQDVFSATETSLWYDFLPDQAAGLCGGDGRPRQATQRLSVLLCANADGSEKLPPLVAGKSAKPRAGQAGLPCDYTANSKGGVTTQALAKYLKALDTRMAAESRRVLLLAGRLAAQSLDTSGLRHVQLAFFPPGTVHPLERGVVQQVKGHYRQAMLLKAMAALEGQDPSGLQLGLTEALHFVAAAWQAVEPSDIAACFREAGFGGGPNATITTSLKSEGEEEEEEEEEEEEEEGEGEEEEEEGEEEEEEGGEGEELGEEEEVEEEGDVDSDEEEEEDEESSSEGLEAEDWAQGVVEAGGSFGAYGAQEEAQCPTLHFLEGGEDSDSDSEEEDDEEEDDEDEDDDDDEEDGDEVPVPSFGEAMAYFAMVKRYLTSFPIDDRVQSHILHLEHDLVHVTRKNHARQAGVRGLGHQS

Substance | histone antibody value (relative units based on a standard curve) (relative units) (histones) | centromere B antibody value (relative units based on a standard curve) (relative units) (centromere B) | Ro (SSA) antibody value (relative units based on a standard curve) (relative units) (SS-A/Ro) | IC50 (Mab 4E10) [nM]
Mab 2F5 (antibody) | 1010 | 1780 | 290 | 
soluble HIV-1 Env gp140 oligomers (CON-S) |  |  |  | 145
A32 (antibody) |  | 1130 |  | 
Mab 4E10 (antibody) |  |  | 221 | 
Mab IgG1b12 (antibody) | 185 | 479 |  | 
